This note sets out measurements from US12295987B2, “Method of using a GIP/GLP1 co-agonist for diabetes” (Eli Lilly and Company, priority 2018, dated 2025).

For the assay, the target named is T1, human gastric inhibitory peptide receptor (hGIPR) (Homo sapiens, UniProt P48546).
T1 construct: expressed in transfected cells; host or cells: HEK293
T1 sequence (P48546 22-466): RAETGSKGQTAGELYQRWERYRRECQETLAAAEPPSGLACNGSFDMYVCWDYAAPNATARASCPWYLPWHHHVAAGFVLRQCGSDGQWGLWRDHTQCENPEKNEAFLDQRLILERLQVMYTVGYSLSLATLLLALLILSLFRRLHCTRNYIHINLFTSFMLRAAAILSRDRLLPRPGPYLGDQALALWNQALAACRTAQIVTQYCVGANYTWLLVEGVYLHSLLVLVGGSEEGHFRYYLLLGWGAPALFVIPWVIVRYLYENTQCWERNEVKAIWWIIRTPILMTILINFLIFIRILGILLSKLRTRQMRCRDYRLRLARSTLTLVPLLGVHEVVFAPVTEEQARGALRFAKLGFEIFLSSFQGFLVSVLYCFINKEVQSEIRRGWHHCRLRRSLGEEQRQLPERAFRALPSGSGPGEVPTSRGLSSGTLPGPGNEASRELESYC
Kind of assay: cAMP pharmacological functional assay in presence of 0.1% casein, hGIPR. The format is cell-based. Conditions: ratio of hGIPR to hGLP1R cAMP EC50 ratios. On the procedure: Each receptor over-expressing cell line (20 μl) is treated with the test peptide in DMEM (Gibco Cat #31053) supplemented with 0.1% Casein (Sigma Cat #C4765), 250 μM IBMX, 1× GlutaMAX™ (Gibco Cat #35050), and 20 mM HEPES (HyClone Cat #SH30237.01) in a 20 μl assay volume. […] EC50 is the concentration of compound causing half-maximal simulation in a dose response curve. A relative EC50 value is derived by non-linear regression analysis using the percent maximal response vs. the concentration of peptide added, fitted to a four-parameter logistic equation.
Intracellular cAMP levels are determined by extrapolation using a standard curve. Dose response curves of compounds are plotted as the percentage of stimulation normalized to minimum (buffer only) and maximum (maximum concentration of each control ligand) values and analyzed using a four parameter non-linear regression fit with a variable slope (Genedata Screener 13). EC50 is the concentration of compound causing half-maximal simulation in a dose response curve.
EC50 is the concentration of compound causing half-maximal simulation in a dose response curve.

Consider “Y-Aib-EGT-αMeF(2F)-TSD-cTA-SI-αMeL-LDEK((2-[2-(2-Amino-ethoxy)-ethoxy]-acetyl)2-(γGlu)-CO—(CH2)18—CO2H)AQ-Aib-EFIEYLIEGGPSSGAPPPS-NH2 (YXEGTXTSDXSIXLDEKAQXEFIEYLIEGGPSSGAPPPS; Aib, cTA, αMeF(2F), αMeL; acylated lysine C20 diacid; amide; (2)..(2) Xaa at position 2 is Aib; (6)..(6) Xaa at position 6 is alpha-methyl-Phe(2F); (10)..(10) Xaa at position 10 is cTA; (13)..(13) Xaa at position 13 is alpha-methyl-Leu; MOD_RES (17)..(17) Lys at position 17 is chemically modified by conjugation of the epsilon-amino group of the Lys side chain with (2-[2-(2-amino-ethoxy)-ethoxy]-acetyl)2-(gamma-Glu)-CO-(CH2)18- CO2H; (20)..(20) Xaa at positi) [Peptide 155]”, for which the “[hGIPR/hGLP1R] EC50 Ratio” value amounted to 5.97.
The result for “Y-Aib-EGT-αMeF(2F)-TSDASI-αMeL-LD-Orn-K((2-[2-(2-Amino-ethoxy)-ethoxy]-acetyl)2-(γGlu)-CO—(CH2)16—CO2H)AQ-Aib-AFI-(D-Glu)-αMeY-LIEGGPSSGAPPPS-NH2 (YXEGTXTSDASIXLDXKAQXAFIXXLIEGGPSSGAPPPS; Aib, Orn, αMe residues, lipidated Lys, D-Glu, amide; (2)..(2) Xaa at position 2 is Aib; (6)..(6) Xaa at position 6 is alpha-methyl-Phe(2F); (13)..(13) Xaa at position 13 is alpha-methyl-Leu; (16)..(16) Xaa at position 16 is Orn; MOD_RES (17)..(17) Lys at position 17 is chemically modified by conjugation of the epsilon-amino group of the Lys side chain with (2-[2-(2-amino-ethoxy)-ethoxy]-acetyl)2-(gamma-Glu)-CO-(CH2)16- CO2H; (20)..(20) Xaa at positi) [Peptide 246]” reads 2.48; that for “Y-Aib-EGT-αMeF(2F)-TSDHSI-αMeL-LD-Dab-K((2-[2-(2-Amino-ethoxy)-ethoxy]-acetyl)2-(γGlu)-CO—(CH2)18—CO2H)AQ-Aib-TFI-(D-Glu)-YLIEGGPSSGAPPPS-NH2 (YXEGTXTSDHSIXLDXKAQXTFIXYLIEGGPSSGAPPPS; Aib, αMeF(2F), αMeL, Dab, D-Glu; lipidated K; amide; (2)..(2) Xaa at position 2 is Aib; (6)..(6) Xaa at position 6 is alpha-methyl-Phe(2F); (13)..(13) Xaa at position 13 is alpha-methyl-Leu; (16)..(16) Xaa at position 16 is Dab; MOD_RES (17)..(17) Lys at position 17 is chemically modified by conjugation of the epsilon-amino group of the Lys side chain with (2-[2-(2-amino-ethoxy)-ethoxy]-acetyl)2-(gamma-Glu)-CO-(CH2)18- CO2H; (20)..(20) Xaa at positi) [Peptide 172]”, 2.63.
As for “Y-Aib-EGT-αMeF(2F)-TSDHSI-αMeL-LD-Dap-K((2-[2-(2-Amino-ethoxy)-ethoxy]-acetyl)2-(γGlu)-CO—(CH2)18—CO2H)AQ-Aib-TFI-(D-Glu)-YLIEGGPSSGAPPPS-NH2 (YXEGTXTSDHSIXLDXKAQXTFIXYLIEGGPSSGAPPPS; Aib, αMeF(2F), αMeL, Dap, D-Glu; lipidated K; amide; (2)..(2) Xaa at position 2 is Aib; (6)..(6) Xaa at position 6 is alpha-methyl-Phe(2F); (13)..(13) Xaa at position 13 is alpha-methyl-Leu; (16)..(16) Xaa at position 16 is Dap; MOD_RES (17)..(17) Lys at position 17 is chemically modified by conjugation of the epsilon-amino group of the Lys side chain with (2-[2-(2-amino-ethoxy)-ethoxy]-acetyl)2-(gamma-Glu)-CO-(CH2)18- CO2H; (20)..(20) Xaa at positi) [Peptide 173]”, the figure is 4.80.
“Y-Aib-EGT-αMeF(2F)-TSDHSI-αMeL-LD-Orn-K((2-[2-(2-Amino-ethoxy)-ethoxy]-acetyl)2-(γGlu)-CO—(CH2)18—CO2H)AQ-Aib-TFI-(D-Glu)-YLIEGGPSSGAPPPS-NH2 (YXEGTXTSDHSIXLDXKAQXTFIXYLIEGGPSSGAPPPS; Aib, αMeF(2F), αMeL, Orn, D-Glu; lipidated K; amide; (2)..(2) Xaa at position 2 is Aib; (6)..(6) Xaa at position 6 is alpha-methyl-Phe(2F); (13)..(13) Xaa at position 13 is alpha-methyl-Leu; (16)..(16) Xaa at position 16 is Orn; MOD_RES (17)..(17) Lys at position 17 is chemically modified by conjugation of the epsilon-amino group of the Lys side chain with (2-[2-(2-amino-ethoxy)-ethoxy]-acetyl)2-(gamma-Glu)-CO-(CH2)18- CO2H; (20)..(20) Xaa at positi) [Peptide 171]”: the “[hGIPR/hGLP1R] EC50 Ratio” value is listed as 7.73.
As for “Y-Aib-EGT-αMeF(2F)-TSDHSI-αMeL-LDEK((2-[2-(2-Amino-ethoxy)-ethoxy]-acetyl)2-(γGlu)-CO—(CH2)14—CO2H)AQ-Aib-HFI-(D-Glu)-YLIEGGPSSGAPPPS-NH2 (YXEGTXTSDHSIXLDEKAQXHFIXYLIEGGPSSGAPPPS; Aib, αMeF(2F), αMeL, D-Glu; C16 diacid lipidated K; amide; (2)..(2) Xaa at position 2 is Aib; (6)..(6) Xaa at position 6 is alpha-methyl-Phe(2F); (13)..(13) Xaa at position 13 is alpha-methyl-Leu; MOD_RES (17)..(17) Lys at position 17 is chemically modified by conjugation of the epsilon-amino group of the Lys side chain with (2-[2-(2-amino-ethoxy)-ethoxy]-acetyl)2-(gamma-Glu)-CO-(CH2)14- CO2H; (20)..(20) Xaa at position 20 is Aib; (24)..(24) Xaa at positi) [Peptide 178]”, the figure is 9.77.
